Data on four molecules can be found in paper doi:10.1101/2020.03.10.986331.

The target in this test is SPPV14ΔC31 (sheeppoxvirus SPPV14 residues 1-145, 31 residue C-terminal deletion) (sheeppoxvirus). Description: ITC. On the technique in general: In ITC the heat of successive injections is recorded.
Turning to Hrk BH3 motif peptide (human, 26-mer), the Kd (in general, the concentration at which binding is half-saturated) was 39 nM.

For the molecule Bax BH3 motif peptide (human, 28-mer), the Kd turned out to be 26 nM.

With Bad BH3 motif peptide (human), the equilibrium dissociation constant (Kd) was found to be 5200 nM.

Molecule VPGRLAEVCAVLLRLGDELEMIRPSV [Bok BH3 motif peptide (human, residues 59-84)] showed a Kd of 7600 nM.
